According to US20240309095A1 (Incyte, published 2024):
Numbering of substitutions follows the chain as printed.

T1: human B7-H4 (purified monomeric recombinant human protein, ACRO biosystems) (human, UniProt Q7Z7D3 29-258, limits assumed, chemically biotinylated (EZ-Link NHS-LC-Biotin) in the yeast display and competition experiments; non-biotinylated in SPR)
T1 construct: Bought recombinant monomeric protein; also called B7x; B7S1
T1 sequence: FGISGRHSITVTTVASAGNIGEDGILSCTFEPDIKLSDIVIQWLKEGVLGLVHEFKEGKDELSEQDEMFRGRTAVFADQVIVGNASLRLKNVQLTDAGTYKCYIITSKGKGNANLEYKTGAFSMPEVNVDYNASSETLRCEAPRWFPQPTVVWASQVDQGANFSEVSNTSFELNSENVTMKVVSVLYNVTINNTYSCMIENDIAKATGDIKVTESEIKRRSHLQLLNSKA

B1: A06 scFv-Fc (scFv, V domains shown)
VH: EVQLVESGGGVVQPGRSLRLSCAASGFTFGDRAMNWVRQAPGKGLEWVSAISGTGATTYYADSVKGRFTISRDNSKNTLYLQMNSLRAEDTAVYYCARKRWYGMDVWGQGTTVTVSS
VL: SYELTQPPSVSVAPGKTARITCGGNNIVTKSVHWYQQKPGQAPVLVVYDDSDRPSGIPERFSGSNSGNTATLTISRVEAGDEADYYCQVWDRGMIFGTGTKLTVL
notes: Tested as scFv-Fc fusion (human IgG1 Fc, vector pDNL9) in crude yeast supernatant; Combo 1 library
B2: B05 scFv-Fc (scFv, V domains shown)
VH: B1 VH with F27L, G30S, D31S
VL: B1 VL with V28G, T29S, S31M
notes: as for B1
B3: B01 scFv-Fc (scFv, V domains shown)
VH: B1 VH with G30S, G53Y, T54E, A56R, T58Q
VL: SYELTQPPSVSVAPGKTARITCGGNNIGVKSVHWYQQKPGQAPVLVVYDDSDRPSGIPERFSGSNSGNTATLTISRVEAGDEADYYCQVWDSRTYVFGTGTKLTVL
notes: as for B1
B4: G05 scFv-Fc (scFv, V domains shown)
VH: B1 VH with G30S, D31S, A33S, T54S, A56S, T58V
VL: B3 VL with N26K, I27L, V29D, S31W, D49E, S51V
notes: Tested as scFv-Fc fusion (human IgG1 Fc, vector pDNL9) in crude yeast supernatant; Combo 1 library; also called G5
B5: Parental (H6.1) scFv-Fc (scFv, V domains shown)
VH: B1 VH with G30S, D31S, R32Y, A33S, T54S, A56G, T57S
VL: B3 VL with V29S
notes: Expressed with the 24 clones as scFv-Fc fusion (human IgG1 Fc) in yeast for SPR; also called parental antibody; parental molecule
B6: A07 scFv-Fc (scFv, V domains shown)
VH: B1 VH with G30S, D31S, A33S, T54S, A56S, T58V
VL: B3 VL with V29S
notes: Tested as scFv-Fc fusion (human IgG1 Fc, vector pDNL9) in crude yeast supernatant; Combo 2 library
B7: A12 scFv-Fc (scFv, V domains shown)
VH: B1 VH with G30D, D31N, G53S, T54S, A56S, T58M
VL: B3 VL with V29S
notes: as for B6
B8: B02 scFv-Fc (scFv, V domains shown)
VH: B1 VH with G30S, D31S, A33S, T54S, A56S, T58V
VL: B3 VL with P54S, S55P
notes: as for B1
B9: B10 scFv-Fc (scFv, V domains shown)
VH: B1 VH with G30S, D31T, A56D
VL: B3 VL with V29S, D91G, S92R, R93Y, T94Q, Y95M, V96I
notes: as for B6

What follows are binders tested against T1, human B7-H4 (purified monomeric …) (assay: SPR (Carterra LSA); scFv-Fc captured on anti-human IgG Fc, antigen injected; asterisk: reached minimum allowed dissociation rate; asterisk: kd at the minimum value allowed (10^-5 s^-1)).
Procedure: (§1) Finally, the affinity of the 24 clones was determined using high-throughput surface plasmon resonance (SPR). The supernatants were arrayed by non-covalent capture in a medium-density SPR chip previously coupled with an anti-human polyclonal antibody and (at least 4 replicates per clone). Non-biotinylated antigen was used for all affinity measurements and sensorgrams were fitted using a pseudo-first-order kinetic model (Lundström 1994). […] In fact, it is notable that the off rates for some of the tested antibodies are probably better than 10⁻⁵ (Table 7), as indicated by the bunching of matured antibodies at that value (Table 7)—such slow off rates are challenging to accurately measure using SPR. No affinity difference was observed between clones coming from one combo library versus the other.
The scFv from the final population (round 3, combo libraries) was bulk cloned into a yeast expression vector containing a human IgG1 Fc region to be expressed in the scFv-Fc format. For this, the scFv region was amplified by PCR, digested with BssHII and NheI restriction enzyme (New England Biolabs), and cloned into the pDNL9 vector, 92 clones were analyzed by Sanger sequencing and 24 of these plus the parental were expressed using S. cerevisiae strain YVH10 (ATCC MYA-4940). scFv-Fc fusions were expressed for 72 h at 20° C. in the presence of galactose. […]
With B1 the koff was ≤ 1e-05 s⁻¹.

What follows are binders tested against T1, human B7-H4 (purified monomeric …) (assay: SPR (Carterra LSA); scFv-Fc captured on anti-human IgG Fc, antigen injected; asterisk: reached minimum allowed dissociation rate).
Procedure: as §1
(§2) The scFv from the final population (round 3, combo libraries) was bulk cloned into a yeast expression vector containing a human IgG1 Fc region to be expressed in the scFv-Fc format. For this, the scFv region was amplified by PCR, digested with BssHII and NheI restriction enzyme (New England Biolabs), and cloned into the pDNL9 vector, 92 clones were analyzed by Sanger sequencing and 24 of these plus the parental were expressed using S. cerevisiae strain YVH10 (ATCC MYA-4940). scFv-Fc fusions were expressed for 72 h at 20° C. in the presence of galactose. The Carterra LSA surface resonance system was used for the affinity measurements. Briefly, anti-Human IgG Fc (Southern Biotech, #2048-01) was covalently coupled to an HC30M chip following the manufacturer's protocols. Crude yeast supernatants containing the scFv-Fc fusions were arrayed on the chip.
For B2, the koff was ≤ 1e-05 s⁻¹.
With B3 the koff was ≤ 1e-05 s⁻¹.
For B4, the koff was ≤ 1e-05 s⁻¹.

The binders below were run against T1, human B7-H4 (purified monomeric …) (assay: SPR (Carterra LSA); scFv-Fc captured on anti-human IgG Fc, antigen injected).
Procedure: as §1, §2
For B1, the KD fold-improvement was 221 fold over parental, the Kd was ≤ 0.034 nM and the kon was 320000 M⁻¹ s⁻¹.
B2 was tested, and the KD fold-improvement was 109 fold over parental, the Kd was ≤ 0.068 nM and the kon was 150000 M⁻¹ s⁻¹.
B5 gave a KD fold-improvement of 1 fold over parental, a Kd of 7.43 nM and a koff of 0.0033 s⁻¹. It also gave a kon of 450000 M⁻¹ s⁻¹.
In the case of B6, the KD fold-improvement is reported as 27 fold over parental, the Kd is reported as 0.277 nM and the koff is reported as 4.7e-05 s⁻¹. The kon was 170000 M⁻¹ s⁻¹.
B7 was tested, and the KD fold-improvement was 53 fold over parental, the Kd was 0.139 nM and the koff was 3.2e-05 s⁻¹. It also gave a kon of 230000 M⁻¹ s⁻¹.
For B3, the KD fold-improvement was 231 fold over parental, the Kd was ≤ 0.032 nM and the kon was 310000 M⁻¹ s⁻¹.
Binder B8 has a KD fold-improvement of 127 fold over parental, a Kd of 0.059 nM and a koff of 1.1e-05 s⁻¹. The kon was 180000 M⁻¹ s⁻¹.
B9 showed a KD fold-improvement of 64 fold over parental, a Kd of 0.116 nM and a koff of 2.9e-05 s⁻¹. It also gave a kon of 260000 M⁻¹ s⁻¹.
With B4 the KD fold-improvement was 119 fold over parental, the Kd was ≤ 0.063 nM and the kon was 160000 M⁻¹ s⁻¹.
